Tests used:
[1] = biological target: H3 (K9, 14, 18, 23) tetra-acetylated nucleosome (Xenopus laevis)
[2] = biological target: H3 (K9, 14, 18, 23) tetra-acetylated nucleosome (Xenopus laevis); remark: listed apart in the source

initial rate of nucleosome repositioning by RSC relative to the unmodified S28C control (competitive sliding assay, 54A18 DNA, 30 °C, 1 mM ATP) [1]: 16 fold
Km for nucleosomes of ATP hydrolysis by RSC (real-time MDCC-PBP ATPase assay, 0.3 nM RSC, 36W36 nucleosomes), against the unmodified control [2]: 3 fold lower
Substance: RSC complex (from UniProt Q02206 1-625)

Reference: PMC2279226
